Laboratory results from publication PMC3088474 (Current biology : CB, 2011).

Target: T1, MBP-Rng2-1306-end (fission yeast, UniProt O14188 1306-1489)
T1 sequence (looked up): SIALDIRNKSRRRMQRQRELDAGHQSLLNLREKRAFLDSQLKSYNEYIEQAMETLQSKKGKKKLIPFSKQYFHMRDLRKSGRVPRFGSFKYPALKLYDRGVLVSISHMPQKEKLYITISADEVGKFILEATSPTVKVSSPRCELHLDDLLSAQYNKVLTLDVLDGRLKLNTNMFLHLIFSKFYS
Experiment: pull-down

binding result: binds
B1: GST-Mid1 1–100 (domain or fragment, fission yeast, UniProt P78953 1-100, looked up)
chain: MKEQEFSYREAKDVSLDSKGLENSFLSSPNREKTPLFFEGNSNETSGYDQTKNFTHGDGDMSLGNLSELNVATDLLESLDLRSMYMHGYGHLDSSFSSQH
